Data published in paper PMC2932838 (Biochemistry, 2010).
Read-outs that look alike come from different tables or passages of the source.

Key:
Test in all cases: ELISA
[1] = target: T1, Biotinylated human α2-antiplasmin (Asn-α2-AP form) (human, UniProt P08697 40-491, biotin (EZ-Link Sulfo-NHS-Biotinylation Kit), sites not stated)
T1 sequence (looked up): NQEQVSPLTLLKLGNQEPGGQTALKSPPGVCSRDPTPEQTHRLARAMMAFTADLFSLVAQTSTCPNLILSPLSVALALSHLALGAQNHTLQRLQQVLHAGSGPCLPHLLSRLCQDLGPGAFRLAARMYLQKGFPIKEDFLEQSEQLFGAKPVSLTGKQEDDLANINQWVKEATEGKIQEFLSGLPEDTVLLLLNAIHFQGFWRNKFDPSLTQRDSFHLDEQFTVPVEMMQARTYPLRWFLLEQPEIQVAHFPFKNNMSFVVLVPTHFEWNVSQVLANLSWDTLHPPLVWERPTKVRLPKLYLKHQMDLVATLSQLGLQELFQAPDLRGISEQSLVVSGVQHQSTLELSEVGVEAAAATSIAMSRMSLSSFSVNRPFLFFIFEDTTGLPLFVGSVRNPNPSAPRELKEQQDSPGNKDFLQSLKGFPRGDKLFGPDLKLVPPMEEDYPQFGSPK

[2] = target: T1, Biotinylated human α2-antiplasmin …; remark: listed apart in the source
[3] = target: T1, Biotinylated human α2-antiplasmin …; remark: listed apart in the source
[4] = target: T1, Biotinylated human α2-antiplasmin …; remark: listed apart in the source

Kd [1]: 0.094 µM | Kd [2]: 0.0055 µM | Kd [3]: 0.105 µM | Kd [4]: 0.098 µM
B1: Fibrin-derived D-D fragment (domain or fragment)
chain 1: VSEDLRSRIEVLKRKVIEKVQHIQLLQKNVRAQLVDMKRLEVDIDIKIRSCRGSCSRALAREVDLKDYEDQQKQLEQVIAKDLLPSR
chain 2: DNENVVNEYSSELEKHQLYIDETVNSNIPTNLRVLRSILENLRSKIQKLESDVSAQMEYCRTPCTVSCNIPVVSGKECEEIIRKGGETSEMYLIQPDSSVKPYRVYCDMNTENGGWTVIQNRQDGSVDFGRKWDPYKQGFGNVATNTDGKNYCGLPGEYWLGNDKISQLTRMGPTELLIEMEDWKGDKVKAHYGGFTVQNEANKYQISVNKYRGTAGNALMDGASQLMGENRTMTIHNGMFFSTYDRDNDGWLTSDPRKQCSKEDGGGWWYNRCHAANPNGRYYWGGQYTWDMAKHGTDDGVVWMNWKGSWYSMRKMSMKIRPFFPQQ
chain 3: KMLEEIMKYEASILTHDSSIRYLQEIYNSNNQKIVNLKEKVAQLEAQCQEPCKDTVQIHDITGKDCQDIANKGAKQSGLYFIKPLKANQQFLVYCEIDGSGNGWTVFQKRLDGSVDFKKNWIQYKEGFGHLSPTGTTEFWLGNEKIHLISTQSAIPYALRVELEDWNGRTSTADYAMFKVGPEADKYRLTYAYFAGGDAGDAFDGFDFGDDPSDKFFTSHNGMQFSTWDNDNDKFEGNCAEQDGSGWWMNKCHAGHLNGVYYQGGTYSKASTPNGYDNGIIWATWKTRWYSMKKTTMKIIPFNRLTIGEGQQHHLGGAK
modifications: covalent γ-γ cross-linking between the D regions
